Test results reported in patent US20160177336A1 (EIDGENOESSISCHE TECHNISCHE HOCHSCHULE ZURICH, published 2016).

Molecular target: T1, Itc1p (yeast, UniProt P53125 1-1264)
T1 construct: Co-expressed with Isw2p in insect cells from MultiBac baculovirus; also called 145 kDa Itc1p; subunit of the yeast Isw2 chromatin remodelling complex
T1 sequence (looked up): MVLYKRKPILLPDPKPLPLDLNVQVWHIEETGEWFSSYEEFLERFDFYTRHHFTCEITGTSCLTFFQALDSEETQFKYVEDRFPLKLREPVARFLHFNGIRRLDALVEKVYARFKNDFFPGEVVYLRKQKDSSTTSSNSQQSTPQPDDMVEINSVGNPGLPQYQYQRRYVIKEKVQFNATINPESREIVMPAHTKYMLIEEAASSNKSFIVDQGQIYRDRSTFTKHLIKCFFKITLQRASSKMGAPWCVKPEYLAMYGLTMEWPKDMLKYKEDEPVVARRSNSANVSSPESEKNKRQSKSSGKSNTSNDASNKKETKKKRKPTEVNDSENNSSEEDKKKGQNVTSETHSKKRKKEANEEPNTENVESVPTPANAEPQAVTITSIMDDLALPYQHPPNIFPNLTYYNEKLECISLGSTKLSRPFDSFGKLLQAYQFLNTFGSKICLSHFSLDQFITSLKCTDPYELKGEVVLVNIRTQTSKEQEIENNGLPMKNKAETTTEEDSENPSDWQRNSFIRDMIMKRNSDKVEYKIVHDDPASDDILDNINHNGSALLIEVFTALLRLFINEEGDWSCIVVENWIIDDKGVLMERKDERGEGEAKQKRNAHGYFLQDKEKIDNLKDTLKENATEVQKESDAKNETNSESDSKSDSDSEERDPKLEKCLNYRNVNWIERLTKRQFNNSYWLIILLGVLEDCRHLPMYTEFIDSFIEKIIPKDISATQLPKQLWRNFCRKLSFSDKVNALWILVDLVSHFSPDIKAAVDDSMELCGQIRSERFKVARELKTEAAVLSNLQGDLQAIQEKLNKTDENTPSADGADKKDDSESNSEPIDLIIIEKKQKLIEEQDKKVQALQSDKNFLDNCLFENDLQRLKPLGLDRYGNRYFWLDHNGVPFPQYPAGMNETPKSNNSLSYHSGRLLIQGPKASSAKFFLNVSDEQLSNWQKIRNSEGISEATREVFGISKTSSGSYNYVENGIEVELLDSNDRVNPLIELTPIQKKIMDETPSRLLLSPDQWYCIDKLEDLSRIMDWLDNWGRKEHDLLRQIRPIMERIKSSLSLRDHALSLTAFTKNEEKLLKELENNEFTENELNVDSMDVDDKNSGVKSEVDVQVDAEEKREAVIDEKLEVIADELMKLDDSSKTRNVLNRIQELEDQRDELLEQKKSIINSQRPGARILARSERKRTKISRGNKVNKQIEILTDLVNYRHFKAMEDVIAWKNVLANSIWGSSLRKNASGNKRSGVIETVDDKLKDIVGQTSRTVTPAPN
Test: co-expression in insect cells from MultiBac baculovirus; complex purified (FIG. 8)
Excerpt: In a test experiment the yeast Isw2 chromatin remodelling complex consisting of the 130 kDa Isw2p and the 145 kDa Itc1p proteins was expressed. One version of MultiBac was created with both proteins integrated at the attTn7 site, and a second version with Isw2p integrated at the attTn7 site and Itc1p inserted at the LoxP site. […] For further detail see FIG. 8.

B1: Isw2p (other, yeast, UniProt Q08773 1-1120, looked up)
chain: MTTQQEEQRSDTKNSKSESPSEVLVDTLDSKSNGSSDDDNIGQSEELSDKEIYTVEDRPPEYWAQRKKKFVLDVDPKYAKQKDKSDTYKRFKYLLGVTDLFRHFIGIKAKHDKNIQKLLKQLDSDANKLSKSHSTVSSSSRHHRKTEKEEDAELMADEEEEIVDTYQEDIFVSESPSFVKSGKLRDYQVQGLNWLISLHENKLSGILADEMGLGKTLQTISFLGYLRYVKQIEGPFLIIVPKSTLDNWRREFLKWTPNVNVLVLHGDKDTRADIVRNIILEARFDVLITSYEMVIREKNALKRLAWQYIVIDEAHRIKNEQSALSQIIRLFYSKNRLLITGTPLQNNLHELWALLNFLLPDIFGDSELFDEWFEQNNSEQDQEIVIQQLHSVLNPFLLRRVKADVEKSLLPKIETNVYVGMTDMQIQWYKSLLEKDIDAVNGAVGKREGKTRLLNIVMQLRKCCNHPYLFEGAEPGPPYTTDEHLIFNSGKMIILDKLLKRLKEKGSRVLIFSQMSRLLDILEDYCYFRDFEYCRIDGSTSHEERIEAIDEYNKPNSEKFVFLLTTRAGGLGINLVTADTVILFDSDWNPQADLQAMDRAHRIGQKKQVHVYRFVTENAIEEKVIERAAQKLRLDQLVIQQGTGKKTASLGNSKDDLLDMIQFGAKNMFEKKASKVTVDADIDDILKKGEQKTQELNAKYQSLGLDDLQKFNGIENQSAYEWNGKSFQKKSNDKVVEWINPSRRERRREQTTYSVDDYYKEIIGGGSKSASKQTPQPKAPRAPKVIHGQDFQFFPKELDALQEKEQLYFKKKVNYKVTSYDITGDIRNEGSDAEEEEGEYKNAANTEGHKGHEELKRRIEEEQEKINSAPDFTQEDELRKQELISKAFTNWNKRDFMAFINACAKYGRDDMENIKKSIDSKTPEEVEVYAKIFWERLKEINGWEKYLHNVELGEKKNEKLKFQETLLRQKIEQCKHPLHELIIQYPPNNARRTYNTLEDKFLLLAVNKYGLRADKLYEKLKQEIMMSDLFTFDWFIKTRTVHELSKRVHTLLTLIVREYEQPDANKKKRSRTSATREDTPLSQNESTRASTVPNLPTTMVTNQKDTNDHVDKRTKIDQEA
notes: Co-expressed with Itc1p in insect cells from MultiBac baculovirus; also called 130 kDa Isw2p; subunit of the yeast Isw2 chromatin remodelling complex
B1: binds.
